Experimental data reported in paper PMC6233088.

Tests used:
[1] = molecular target: RGA5_S (RGA5 982-1116), small C-terminal fragment of RGA5 carrying the HMA domain (rice) (UniProt F7J0N2); experiment: ITC
[2] = molecular target: minimal RGA5HMA construct (RGA5 991-1072) (rice) (UniProt F7J0N2); experiment: ITC
[3] = molecular target: RGA5_S (RGA5 982-1116), small C-terminal fragment of RGA5 carrying the HMA domain (rice) (UniProt F7J0N2); experiment: crystal structure

dSP-AVR-Pia (AVR-Pia with its signal peptide deleted), recombinant (natural protein)
Kd [1]: 1.8 µM

dSP-AVR1-CO39 (AVR1-CO39 with its signal peptide deleted), wild type, recombinant (natural protein)
Kd [2]: 7.2 µM | stoichiometry N [3]: 1
